Source: US10100341B2, “Tailored oils produced from recombinant oleaginous microorganisms” (Corbion Biotech, Inc., priority 2011, dated 2018)

Tested on: Prototheca moriformis (UTEX 1435)
Experiment: cDNA abundance by real-time RT-PCR under nitrogen depletion
Format: cell-based
Conditions: after 24 hours of culture in low nitrogen medium
Experimental: A cDNA library was generated from Prototheca moriformis (UTEX 1435) using standard techniques. The Prototheca moriformis cells were grown for 48 hours under nitrogen replete conditions. […] After about 24 hours in culture, the nitrogen supply in the media was completely depleted. The collected samples were immediately frozen using dry ice and isopropanol. Total RNA was subsequently isolated from the frozen cell pellet samples and a portion from each sample was held in reserve for RT-PCR studies. The rest of the total RNA harvested from the samples was subjected to polyA selection. Equimolar amounts of polyA selected RNA from each condition was then pooled and used to generate a cDNA library in vector pcDNA 3.0 (Invitrogen). Roughly 1200 clones were randomly picked from the resulting pooled cDNA library and subjected to sequencing on both strands. Approximately 68 different cDNAs were selected from among these 1200 sequences and used to design cDNA-specific primers for use in real-time RT-PCR studies. RNA isolated from the cell pellet samples that were held in reserve was used as substrate in the real time RT-PCR studies using the cDNA-specific primer sets generated above. This reserved RNA was converted into cDNA and used as substrate for RT-PCR for each of the 68 gene specific primer sets. […] As discussed in the specification, nitrogen depletion/limitation is a known inducer of lipogenesis in oleaginous microorganisms. Fold increase refers to the fold increase in cDNA abundance after 24 hours of culture in low nitrogen medium.

Molecule | Fold increased (cDNA abundance)
Flap Flagellar-associated protein promoter/5′UTR: putative nitrogen-regulated promoter/5′UTR, SEQ ID NO: 57 (nucleic acid, listed as Prototheca moriformis) DNA: CAACGACAACCAGCAGGCAACTCGGTCAGCGACCCAACACGCGAGTCAAATTGTTGCGTGTTCTTGCCTTGTCTATTTACTGTGATAGCAAGACTGTCGGTCAGTCAATACCGCGGTGCGCACGTCGGGGTGCCAAGCCTAGCAGAGCACGGGACGGCTGGTGCTGTGCGCCAGCTCAGCTCGCTTCGCGACCAATTGTAGGACCGGCAAAGTCACCAAAACATGCCAGCGGTGCGATTCAATTGGTCATGAGCTCTACAAAATTGTTTTGTGCGTCGCGCAGGTATCCAACGGCGCGGCAGAGAAAGTTTGACAGCTCTCGATTTCATCTCGGAAAAATGGGGAGAATTTATGACACACAAGTGCGCAGGCGGCCCAGGCGGCCAGCATATTCTGGCGTGACCTGGGCCGCCCACAAAATGCTTGGATGCACTCTAAAATAATTATATTTGCCATGAACAAGGGAAGAGTTACCGCACCCAGCCCTAGACTTGGGCGCCCGAGCAAGGTTACGTCAAGCCACCTTCGCCCATCGCCCAACTCCGTATTCCCCGACAGCCGCACGTGGCCCTCGCCGGAATGAACCCTGAATCGGCATCACGCCACGCGTTCGCCAATCGTTCCGCTCTCTGGCTTCATCGGCCTGCGCCTTCACGTCGTGGTCACGACAGTGCATTCATACTTCCATTTGCACCTCGGCACACACTTTTACGCATCGCCTACCCTTGCTGCGGCAGTCTAGGGTCACTTTGCAGCCATGGGACAGTGCTACACCACCGTCGGTGCGCAAAGCTATTTCAAGTGAACCGTGGGCGGAAAAAAGGAATGTACACTGTCTCAACCGACTCCTACAATTGTTTACCATGCAGATCAGAGCTCGACGGCCATCATCGAGCAGGTGTGGGGCCTTGGTGGCGCGGCGCGGGGCCCCAGGGCGTCGCAGGCATTGATGGCACTCTGAGACTTTCGCACGCGCATGAGGGACCCCATCAAGAGAAGAGTGTGTCTTTATGTCCCCATTCATGATGATGTATCTTGTGATTGTCGCAGTTTGGCAAGTTTAACCGGATCGCCGCTCCAGGTGTGGCGTGGCGGATTTTTCTAGGGGTGCTTGAGCAGTCG | 4.92
SulfRed Sulfite reductase promoter/5′UTR: putative nitrogen-regulated promoter/5′UTR, SEQ ID NO: 58 (nucleic acid, listed as Prototheca moriformis) DNA: GGCCCAGGGCCCTGCGGATGGCCCACACCAGATCTAGCCTCTCTTATGCCATGCCCGCCTCGCTGCCCGTCGTATCCCCCCGCCGATCCGCGCGTAGGGGACCGCGGCCTGACCCACGCCACGAAAGAGCTTTGCTCCTCAATTTCTCGCCAACAGAACCGTATCAAACGCTCAACGCCTATCCCGAACAATCCGTATTCACACCAAATCGAGTATACCGGACTGGTTTGCCTAGTCTTGAAGGAAATGATCCCGTCCATGCTCGGAAGGGGGAGCGGGCGGAGGATCCTACTCATCTCTGAAATGGGATTGGTCCGAAGATGGGTTGGGCAAGCACGTGCCAAACCCCAGCGAGTTGCTGACGAGCAGGCTCATCCAATCCCCCGGCGAATCCTCCCTCACGCCCCGCATGCATACAAGTCCCTCCCACACGCCCCCTCCCATCCATTTTCGCCTGGTCCGAACGCGAGCGGCGTCGAGGCGGACCACTTGCTCCGCAGCGCCGTCTGGGTCTCCACCCCACAGCGGCTTTGCTGCCAGAGGCACCCCCCTTGCCCCACCTCCTCTTGCAGCC | 10.91
